This series is described as follows: soluble on expression in E. coli; label from the status in PepcDB or PDB records.
With “MSVKIDVIRVEIPEGTNVIIGQSHFIKTVEDLYETLASSSPHLKFGIAFCEASGKRLIRWDGNDEELIKLAQQTALKIGAGHTFVIYIKNGFPINVLNRIKNVEEVVRIFAATANPLQVLVAETDQGRGVIGVVDGYTPLGIETEADIKERKELLRKFGYKR”, the “soluble on expression in E. coli” value is “soluble”.

Consider “ACDYTCGSACYSSSDVSTAQAAGYKLHEDGETVGSNSYPHKYNNYEGFDFSVSSPYYEWPILSSGDVYSGGSPGADRVVFNENNQLAGVITHTGASGNNFVECT”, for which the “soluble on expression in E. coli” value is “soluble”.

Take “MIREKALEFHKNNFPGNGKIEVIPKVSLESREELTLAYTPGVAEPCKEIARDPGKVYEYTSKGNLVAVVSDGSRILGLGNIGPLAGLPVMEGKALLFKRFGGVDAFPIMIKEQEPNKFIDIVKAIAPTFGGINLEDIASPKCFYILERLREELDIPVFHDDQQGTAAVVLAGLLNALKVVGKKISEITLALFGAGAAGFATLRILTEAGVKPENVRVVELVNGKPRILTSDLDLEKLFPYRGWLLKKTNGENIEGGPQEALKDADVLISFTRPGPGVIKPQWIEKMNEDAIVFPLANPVPEILPEEAKKAGARIVATGRSDYPNQINNLLGFPGIFRGALDVRARTITDSMIIAAAKAIASIVEEPSEENIIPSPLNPIVYAREARAVAEEAMKEGVARTKVKGEWVEEHTIRLIEFYENVIAPINKKRREYSKAITRA”: the “soluble on expression in E. coli” value was “soluble”.

“MSLENLQTNFSLVQGSTKKLNGMGDDGSPPAKKMITDIHVNGKTINKVPTVKKEHLDDYGEAPVETDGEHVKRTCTSVPETLHLNPSLKHTLAQFHLSSQSSLGGPAAFSARHSQESMSPTVFLPLPSPQVLPGPLLIPSDSSTELTQTVLEGESISCFQVGGEKRLCLPQVLNSVLREFTLQQINTVCDELYIYCSRCTSDQLHILKVLGILPFNAPSCGLITLTDAQRLCNALLRPREGHHHHHH”: the “soluble on expression in E. coli” value is “soluble”.

Turning to “MGSDKIHHHHHHMIHLAVGRFNIDIIVKLDSIPPIDSSHMTDVLEIMPGGAATNYAVAVTKLGHSAKLLAKVGKSEVVRSLMEKVVELGVGLEYVEELNEKPSATLIFLRNDGTLSMVRRLGASILLTREDVKRRFGLFDVIHFASVSPNVVVRDPYAKLVSYDPGPQAKNIESVDVDILYVNEKEYEMIEDKNIRARFIVIKMGKKGAKIITETEECSVEPIQVEKIVDTTGAGDTFDAAFNVTYSEDKDIVKSLQVASVASGLKVSRIGGISSPTLEEVREYLRKKKPNVICK”, the “soluble on expression in E. coli” value is “not soluble”.

Consider “MHHHHHHMSGGLTPDQAIDAIRGTGGAQPGCRALHAKGTLYRGTFTATRDAVMLSAAPHLDGSTVPALIRFSNGSGNPKQRDGAPGVRGMAVKFTLPDGSTTDVSAQTARLLVSSTPEGFIDLLKAMRPGLTTPLRLATHLLTHPRLLGALPLLREANRIPASYATTEYHGLHAFRWIAADGSARFVRYHLVPTAAEEYLSASDARGKDPDFLTDELAARLQDGPVRFDFRVQIAGPTDSTVDPSSAWQSTQIVTVGTVTITGPDTEREHGGDIVVFDPMRVTDGIEPSDDPVLRFRTLVYSASVKLRTGVDRGAQAPPV”, for which the “soluble on expression in E. coli” value is “soluble”.

For the sequence “MGSDKIHHHHHHMTGFYEFFSLPDRVEVVCPLCDGCATFTYAHVLQIEKKDAHLFENEQFEIKLFNQRFAHKWPCVLFFPPLFGAVSWREKFPEKYQGASTWEHRANSAFTDGTDLGLICCHQCMAKQKHQLEWPQDAFYSIEFKGHLLWAFNKMMMQQIRDYIQAKDRDAVFASEPIVIRHLPTVFKLAKNREGLVKKINKLIYRP”, the “soluble on expression in E. coli” value was “not soluble”.

In the case of “MSLDLEYTPEQQQLRAEIRATLQTVMTPERVAAVSEQMDGGPAVRECVRALAAANLLGVGWPKEYGGRGFSAIEQFIFAEEARRVSAPIPLVTLNTAGPTLMHYGTDEQKRRFLPAILDGTVEFAIGYSEPGAGSDLASVHTTAVRVGDEYVINGQKMFTSGAAYADYIWLAVRTDPDAKKHKGISILIVPTSSPGFSWQPLHTMPGISTFYTFYDDVRVPVSALVGAENQGWQLITTQLNFERAALGNLGALEPLFDKTLDWALSTELDGGRVIDQPWVRSALARVEAQVAAYKLVNLRVNAAMTKGALNMGEASAAKVFGTELTQQVARELLEVLDGNGVRRGAEAPLRGALESAYRQAVINTFGGGANEIQRDIIAMAALGMPRAEGHHHHHH”, the “soluble on expression in E. coli” value is recorded as “not soluble”.

Take “MTSTFLYKFYPNYNAKNCGDRMPKLMLALDVLDRDRALKIVEDVKDYVDAIKVGYPLVLSTGTEIIKEIKKLCNKEVIADFKVADIPATNEKIAKITLKYADGIIVHGFVGEDSVKAVQDVAKKLNKKVIMVTEMSHPGAVQFLQPIADKLSEMAKKLKVDAIVAPSTRPERLKEIKEIAELPVITPGVGAQGGKIEDILNILDENDYVIVGRAIYQSQNPKEEAKKYKEMLNK”: the “soluble on expression in E. coli” value is “soluble”.

Consider “MGSDKIHHHHHHMSVVDFSKLYPDNRQEGETVLRQAQLVMLRMLKIIDYICRKHDISYWMCSGTLLGAVRHKGFIPWDDDLDICMIREDYERFVEIAVNEFPEDMMLQTRETDPHYHYLPLPCKVRDKKSFILSPGYEDEECEKGLFIDIFPMDRYHKQKLPFMFEKMVKVYNTFICKSLDAIYFKDESIDKKILAFFHPVFHKLVLQYMKFAKKLIDKNRGLGTDCRLGHGFDTLWKRYLRFDDIFPVVEIDFEDSKFFAPHRPDVYLTTLYGPNYMTPPPEKQRLAAQHAHEIKPII”, for which the “soluble on expression in E. coli” value was “not soluble”.

As to “MSLNTVLRLPLKYPSTNKELKSHEYFESQIAYTGCLIATTTHMVDHISWRLNNDLKTITLTPICISNPFQLECRTISLLLPSQVYPHCIDAVYHGEEGGYLVVDVIDENYLWITLRIEMNDFLHNTKNFRPLTLDQFESWGHISVPYSFELRSNPYCLRVLDERNVVVSLKDGGLLHFQRSSVLADFNVFNCEESAHFHLGGILDGIFKSGRADLTVDGVSSNAAIDATIVPDPSKSLIATLTVSKTIKFWDLKEHSLLRERTIHPQDTNTWLSFGPARYLQCYGNVLGVHSLLQTKHSTSIDFWDVSPLKEDQKSYKILHTVELLSPTINGAPSDSPFSNDIWFIQDFTLKFEKGNFTVLWKSNNSSILTIYDLKNLAENDKPPKLSQWTLSGSEGHHHHHH”, the “soluble on expression in E. coli” value is listed as “not soluble”.

Regarding “MGSDKIHHHHHHLSITKPHTTVLLTGATGNWGRATLRELSSRSDRVTVLVLSLPGEKDKAVLSEFSAMENLDVVWGDLTDYATVATCVARADVVLHVGAVVSPLADEQPELATRVNVGSMRNIIRAVKAQPDPSRIRVVGVGSVAQTGNRNPPLHWGRVGDPIRVSRFDAYGQSKVTAERELVEAGLPTWVWLRQTGIFHPGMLEIRDPIMTHSPFAGVMEWVSAQDSARLLANLCEPDVPGELWGGVYNIGGGEGWRLSNWQLQTAIGQAVGVKDIRKWYDRNWFALKNFHGQWYTDSDRLHALVPFRQDTFESALARALATAPSSVRNAGKVPAWIVKHLVMKPLSRKPRGTMAAIRSGTDQEVSAHFGSLPEWRSIGDWSTFEPPAPSRTPSYLDHGYDENKPASEWSAIDYLEAAAFRGGRLLTEDVNPGLPSAPLMWSCGAGHEFAASPRLVLQAGHWCPACTADPAGYDRQAEHNKFLAQVIDA”, the “soluble on expression in E. coli” value is “not soluble”.

Take “MPSKQDVLLLDYWDQWAEAYRINGKSINTVYRYKLFRKHLKSRFDGRKLNSIRPIEWQKFINDFAAGKDRKEKTTRKRPRERSKDIVTKMNSYVRGMVKAAINERILFSDFTFGTKTSGVRLEHHHHHH”: the “soluble on expression in E. coli” value is on record as “not soluble”.

For “MSAEYGQYGYYGGAGGAQTTTTPAAALAASIPATSVYGEQRPTFSEDGTGAPYSTILNLVGSAAVNSDISYDTSSKDPHMIRARVFIGNIARAIITRDDIIELFRPFGKIIAVNYFAQQGFGFVQFNEAGSADESCRSLNGMSWKACCLDVHLAMLGSLRKPTGNEGRQGNTIAPAPLPVGKPLTQHAVDTSAQSAKRPYEDEEYEIFKQNKRNKQFANGDTTINEQLAPNEMCDTMVCGYCRFVTSDFEEFKEHRIAGCNKYKDPEEPRHRLKCATCSQRFLGAWGLLEHLTDFHRMLLYTEEKMTPNDLAQMRGGSVSTPSSIPETPASGSAAPAAPNSANSTPSHHIVEGAPLSYSSNNGTPQI”, the “soluble on expression in E. coli” value was “not soluble”.

Consider “MSLSLEYKGTFGSINAGYADWNSGFVNTHRGEVWKVTADFGVNFKEAEFYSFYESNVLNHAVAGRNHTVSAMTHVRLFDSDMTFFGKIYGQWDNSWGDDLDMFYGFGYLGWNGEWGFFKPYIGLHNQSGDYVSAKYGQTNGWNGYVVGWTAVLPFTLFDEKFVLSNWNEIELDRNDAYTEQQFGRNGLNGGLTIAWKFYPRWKASVTWRYFDNKLGYDGFGDQMIYMLGYDFEGHHHHHH”, for which the “soluble on expression in E. coli” value was “not soluble”.

Consider “MEPLSHRGLPRLSWIDTLYSNFSYGTDEYDGEGNEEQKGPPEGSETMPYIDESPTMSPQLSARSQGGGDGVSPTPPEGLAPGVEAGKGLEMRKLVLSGFLASEEIYINQLEALLLPMKPLKATATTSQPVLTIQQIETIFYKIQDIYEIHKEFYDNLCPKVQQWDSQVTMGHLFQKLASQLGVYKAFVDNYKVALETAEKCSQSNNQFQKISEELKVKGPKDSKDSHTSVTMEALLYKPIDRVTRSTLVLHDLLKHTPVDHPDYPLLQDALRISQNFLSSINEDIDPRRTAVTTPKGETRQLVKDGFLVEVSESSRKLRHVFLFTDVLLCAKLKKTSAGKHQQYDCKWYIPLADLVFPSPEESEASPQVHPFPDHELEDMKMKISALKSEIQKEKANKGQSRAIERLKKKMFENEFLLLLNSPTIPFRIHNRNGKSYLFLLSSDYERSEWREAIQKLQKKDLQAFVLSSVELQVLTGSCFKLRTVHNIPVTSNKDDDESPGLYGFLHVIVHSAKGFKQSANLYCTLEVDSFGYFVSKAKTRVFRDTAEPKWDEEFEIELEGSQSLRILCYEKCYDKTKVNKDNNEIVDKIMGKGQIQLDPQTVETKNWHTDVIEMNGIKVEFSMKFTSRDMSLKRTPSKKQTGVFGVKISVVTKRERSKVPYIVRQCVEEVEKRGIEEVGIYRISGVATDIQALKAVFDANNKDILLMLSDMDINAIAGTLKLYFRELPEPLLTDRLYPAFMEGIALSDPAAKENCMMHLLRSLPDPNLITFLFLLEHLKRVAEKEPINKMSLHNLATVFGPTLLRPSEVESKAHLTSAADIWSHDVMAQVQVLLYYLQHPPISFAELKRNTLYFSTDV”, for which the “soluble on expression in E. coli” value is listed as “soluble”.

In the case of “DSDCHFAEQRDFSSQWFRVDDGGEIPDEQELHWHLEYLQQNPNAARDLLHALLPDKDASQGDWRCSYRLLQSADLMPLVFDYRWLMNGQFAFYLVDSASQENGGVATTLLVRALFDDYLRNLKSFSADLKDMVNIMEKGIECSDCAGAVK”, the “soluble on expression in E. coli” value is “not soluble”.

Turning to “MHIERLDFENSPYLGVFGVATDRVVLIREGLQEKKLEVIRETLKVPVIEVSVMKSRIIGTLATGNSNAIILPWYVWDAEIERIKKALSEYGIDMEVVPFRSKYTALGNLILTNDKAALVSAKFSRKEAQEIGEILGVEVERGVIAGLHAVGSAGVVTNKGGLVHPETSDEELEWLSDLFKVDVYVGTANMGVPYVGTCMLANSNGVVVGHLTTGPEIVKIEEALGFV”, the “soluble on expression in E. coli” value was “soluble”.

For “ATATAYVRSCDGASPPTPPGCGLKLVVDLTLDDSILTGSVLETEVMVTHALHESLFPRDAASDAAGTAATSLQVSLPPITVAMRRGAVQMRYGLTYLRTFPAALRDSVRVLKTAMSCDDGVTRCPSYMSMTGTLVSAPLGLCCLCTSVECALTSDLCNASMRAHFCFRTGAAGITCVQSEGITYHGWAVGSSSPYYMMHLSASGRGIAPTTLQLTTDAPEVQKGASALQILRASGVLPGESNPTVDISGRVLFVPSAEHSSASRSISTGPVRDDDPAEWLLLPAPLVSVSGNDCDKVGISPDYFYSLSSTKQCNAQKGTCVRHQLADYRAADLEQIAQGVGGRYIAASLGTFTRQAMREQEFLLDAVERTGGAMLRWTVNADGLVFQPLPVHGVLDAIKFDSSTGILYVTVRNNNTYGGLYYVAVGQCRGARASNCDSDGVTHECGRTALVAGANTSSLLQFSMVSDLPEEVGSTASCTVVFRDAAAALLASANISWTVEHTTTTPAPNAPKAEQCRRCAFRDLRCLFSTV”, the “soluble on expression in E. coli” value is recorded as “not soluble”.

For the origin of these results see the DeepSol protein solubility set.
